Measurements reported in US7432070B2, “Homogenous assay for enzymatic activity” (Pierce Biotechnology, Inc., priority 2003, dated 2008).
Non-standard residues stand in square brackets, D forms with d. No end group written: not given here. pS = N[C@@H](COP(=O)(O)O)C(=O)O; Nva = CCC[C@H](N)C(=O)O

How the values were obtained:
[1] = molecular target: T1, Calpain 1 (Homo sapiens, UniProt P07384); experiment: Km determination for Calpain 1 using the protease assay; assay type: biochemical; conditions: substrate at 0.078, 0.15, 0.31 and 0.62 μM, 13.15 U/ml Calpain 1, 5 minutes, room temperature, N=3; read-out: Km of labeled peptide substrate for Calpain 1
T1 construct: Calpain 1 from human erythrocytes; purchased Calbiochem; host or cells: human erythrocytes
T1 sequence (P07384 1-714): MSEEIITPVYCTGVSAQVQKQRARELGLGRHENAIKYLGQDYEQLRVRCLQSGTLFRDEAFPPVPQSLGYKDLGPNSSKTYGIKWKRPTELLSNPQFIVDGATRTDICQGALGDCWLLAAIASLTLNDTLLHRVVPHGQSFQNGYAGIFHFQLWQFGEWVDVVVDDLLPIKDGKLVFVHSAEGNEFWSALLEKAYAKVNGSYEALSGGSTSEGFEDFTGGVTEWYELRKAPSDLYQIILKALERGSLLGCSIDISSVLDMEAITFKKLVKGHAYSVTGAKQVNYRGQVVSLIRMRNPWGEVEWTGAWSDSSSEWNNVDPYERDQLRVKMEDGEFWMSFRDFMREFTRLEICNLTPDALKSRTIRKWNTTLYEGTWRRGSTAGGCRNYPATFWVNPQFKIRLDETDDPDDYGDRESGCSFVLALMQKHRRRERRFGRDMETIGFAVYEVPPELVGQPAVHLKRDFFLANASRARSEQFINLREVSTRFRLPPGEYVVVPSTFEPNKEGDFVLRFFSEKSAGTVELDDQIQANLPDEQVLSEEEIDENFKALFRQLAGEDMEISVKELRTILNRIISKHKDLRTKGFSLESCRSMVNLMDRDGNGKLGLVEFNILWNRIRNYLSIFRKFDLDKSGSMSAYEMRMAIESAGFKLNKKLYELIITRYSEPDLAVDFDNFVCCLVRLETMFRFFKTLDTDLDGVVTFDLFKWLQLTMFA
T1 sequence (P04632 1-268 partner): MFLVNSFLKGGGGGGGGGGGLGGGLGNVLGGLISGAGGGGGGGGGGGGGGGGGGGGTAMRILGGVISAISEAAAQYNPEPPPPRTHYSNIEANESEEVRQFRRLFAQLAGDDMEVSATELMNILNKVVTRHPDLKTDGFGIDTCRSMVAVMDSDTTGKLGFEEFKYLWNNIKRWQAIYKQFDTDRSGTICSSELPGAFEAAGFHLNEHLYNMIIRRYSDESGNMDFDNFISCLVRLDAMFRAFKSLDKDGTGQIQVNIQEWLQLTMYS
Procedure: (§1) Pepsin A was purchased from Sigma. TPCK Trypsin was obtained from Pierce Biotechnology.
Calpain 1 Lissamine rhodamine-labeled peptide substrate (Dye-[…] PRDpSA) (SEQ. ID NO 3) at 0.078, 0.15, 0.31 and 0.62 μM were digested with 13.15 U/ml Calpain 1. The Lissamine rhodamine-labeled peptide was prepared in 25 mM Tris, 150 mM NaCl pH 7.5, 10 mM CaCl2, and Calpain 1 was prepared in 25 mM Tris, 150 mM NaCl pH 7.5. […] N=3.

[2] = molecular target: T2, MMP-3 (Homo sapiens, UniProt P08254); experiment: Km determination for MMP-3 using the protease assay; assay type: biochemical; conditions: substrate at 1, 2, 5 and 10 μM, 0.88 mU/ml MMP-3, 5 minutes, room temperature, N=3; read-out: Km of labeled peptide substrate for MMP-3
T2 construct: Recombinant MMP-3 catalytic subunit; purchased Calbiochem
T2 sequence (P08254 100-272 limits assumed, species assumed): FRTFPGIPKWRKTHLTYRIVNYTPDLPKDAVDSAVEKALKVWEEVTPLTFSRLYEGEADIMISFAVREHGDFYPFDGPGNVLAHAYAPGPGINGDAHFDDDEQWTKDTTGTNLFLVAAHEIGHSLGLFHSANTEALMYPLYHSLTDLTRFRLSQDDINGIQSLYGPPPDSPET
Excerpt: as §1

Row | Km [1] [µM] | Km [2] [µM] | Substance
1 | 0.17 ± 0.01 | – | Dye-QQQEVYGMM PRDpSA: Calpain 1 Lissamine rhodamine-labeled peptide substrate, label at the N-terminus ({Lissamine rhodamine}-QQQEVYGMMPRD[pS]A)
2 | – | 1.44 ± 0.15 | Dye-RPKPVE-Norvaline-WRKpSA: MMP-3 Lissamine rhodamine-labeled peptide substrate, label at the N-terminus ({Lissamine rhodamine}-RPKPVE[Nva]WRK[pS]A)
